The source of these data is paper PMC12169213 (Science (New York, N.Y.), 2025).

One test concerns the target BRCA1-BARD1 (UniProt P38398 1-1863; Q99728 1-777). Kind of test: pull-down.
For another test, the target named is mCherry-BLM (UniProt P54132 1-1417). Briefly: DNA curtain single-molecule imaging.
mCherry-BLM, sequence (P54132 whole entry): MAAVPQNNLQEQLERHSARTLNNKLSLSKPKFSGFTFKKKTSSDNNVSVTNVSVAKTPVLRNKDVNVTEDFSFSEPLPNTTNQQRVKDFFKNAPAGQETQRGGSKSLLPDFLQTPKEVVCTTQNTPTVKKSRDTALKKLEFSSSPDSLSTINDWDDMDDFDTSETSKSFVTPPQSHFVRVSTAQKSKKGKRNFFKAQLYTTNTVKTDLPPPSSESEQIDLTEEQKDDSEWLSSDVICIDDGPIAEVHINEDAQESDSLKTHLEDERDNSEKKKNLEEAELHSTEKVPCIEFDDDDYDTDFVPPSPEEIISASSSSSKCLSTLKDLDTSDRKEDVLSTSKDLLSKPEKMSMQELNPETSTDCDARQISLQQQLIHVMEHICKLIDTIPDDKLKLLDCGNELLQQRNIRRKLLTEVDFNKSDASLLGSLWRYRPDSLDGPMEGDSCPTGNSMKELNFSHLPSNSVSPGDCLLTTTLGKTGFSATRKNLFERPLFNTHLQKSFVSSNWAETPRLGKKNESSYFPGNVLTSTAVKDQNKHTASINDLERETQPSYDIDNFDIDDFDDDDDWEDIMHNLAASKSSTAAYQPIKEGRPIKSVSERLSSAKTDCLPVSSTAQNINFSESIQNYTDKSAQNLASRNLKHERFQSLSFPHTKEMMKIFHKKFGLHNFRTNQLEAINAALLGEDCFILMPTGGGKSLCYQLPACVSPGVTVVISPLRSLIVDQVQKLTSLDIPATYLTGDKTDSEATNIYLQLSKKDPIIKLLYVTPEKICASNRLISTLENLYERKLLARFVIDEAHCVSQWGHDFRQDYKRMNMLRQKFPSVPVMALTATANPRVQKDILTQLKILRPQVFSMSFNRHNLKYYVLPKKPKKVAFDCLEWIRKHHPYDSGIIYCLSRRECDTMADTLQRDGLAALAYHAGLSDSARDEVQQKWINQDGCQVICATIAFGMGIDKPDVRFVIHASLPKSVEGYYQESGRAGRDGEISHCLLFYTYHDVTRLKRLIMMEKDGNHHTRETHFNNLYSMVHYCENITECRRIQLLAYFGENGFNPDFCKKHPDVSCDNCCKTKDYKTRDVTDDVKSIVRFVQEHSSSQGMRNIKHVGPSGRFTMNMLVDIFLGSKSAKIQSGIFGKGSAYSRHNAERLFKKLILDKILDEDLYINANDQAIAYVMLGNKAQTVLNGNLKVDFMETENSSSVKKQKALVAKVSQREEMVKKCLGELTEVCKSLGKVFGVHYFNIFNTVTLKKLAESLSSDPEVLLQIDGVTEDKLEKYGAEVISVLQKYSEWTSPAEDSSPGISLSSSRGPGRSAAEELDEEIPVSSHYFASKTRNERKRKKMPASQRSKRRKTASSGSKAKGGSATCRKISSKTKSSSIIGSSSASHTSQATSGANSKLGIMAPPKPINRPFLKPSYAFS

BRCA1-BARD1, sequence (P38398 whole entry, chain 1 of 2): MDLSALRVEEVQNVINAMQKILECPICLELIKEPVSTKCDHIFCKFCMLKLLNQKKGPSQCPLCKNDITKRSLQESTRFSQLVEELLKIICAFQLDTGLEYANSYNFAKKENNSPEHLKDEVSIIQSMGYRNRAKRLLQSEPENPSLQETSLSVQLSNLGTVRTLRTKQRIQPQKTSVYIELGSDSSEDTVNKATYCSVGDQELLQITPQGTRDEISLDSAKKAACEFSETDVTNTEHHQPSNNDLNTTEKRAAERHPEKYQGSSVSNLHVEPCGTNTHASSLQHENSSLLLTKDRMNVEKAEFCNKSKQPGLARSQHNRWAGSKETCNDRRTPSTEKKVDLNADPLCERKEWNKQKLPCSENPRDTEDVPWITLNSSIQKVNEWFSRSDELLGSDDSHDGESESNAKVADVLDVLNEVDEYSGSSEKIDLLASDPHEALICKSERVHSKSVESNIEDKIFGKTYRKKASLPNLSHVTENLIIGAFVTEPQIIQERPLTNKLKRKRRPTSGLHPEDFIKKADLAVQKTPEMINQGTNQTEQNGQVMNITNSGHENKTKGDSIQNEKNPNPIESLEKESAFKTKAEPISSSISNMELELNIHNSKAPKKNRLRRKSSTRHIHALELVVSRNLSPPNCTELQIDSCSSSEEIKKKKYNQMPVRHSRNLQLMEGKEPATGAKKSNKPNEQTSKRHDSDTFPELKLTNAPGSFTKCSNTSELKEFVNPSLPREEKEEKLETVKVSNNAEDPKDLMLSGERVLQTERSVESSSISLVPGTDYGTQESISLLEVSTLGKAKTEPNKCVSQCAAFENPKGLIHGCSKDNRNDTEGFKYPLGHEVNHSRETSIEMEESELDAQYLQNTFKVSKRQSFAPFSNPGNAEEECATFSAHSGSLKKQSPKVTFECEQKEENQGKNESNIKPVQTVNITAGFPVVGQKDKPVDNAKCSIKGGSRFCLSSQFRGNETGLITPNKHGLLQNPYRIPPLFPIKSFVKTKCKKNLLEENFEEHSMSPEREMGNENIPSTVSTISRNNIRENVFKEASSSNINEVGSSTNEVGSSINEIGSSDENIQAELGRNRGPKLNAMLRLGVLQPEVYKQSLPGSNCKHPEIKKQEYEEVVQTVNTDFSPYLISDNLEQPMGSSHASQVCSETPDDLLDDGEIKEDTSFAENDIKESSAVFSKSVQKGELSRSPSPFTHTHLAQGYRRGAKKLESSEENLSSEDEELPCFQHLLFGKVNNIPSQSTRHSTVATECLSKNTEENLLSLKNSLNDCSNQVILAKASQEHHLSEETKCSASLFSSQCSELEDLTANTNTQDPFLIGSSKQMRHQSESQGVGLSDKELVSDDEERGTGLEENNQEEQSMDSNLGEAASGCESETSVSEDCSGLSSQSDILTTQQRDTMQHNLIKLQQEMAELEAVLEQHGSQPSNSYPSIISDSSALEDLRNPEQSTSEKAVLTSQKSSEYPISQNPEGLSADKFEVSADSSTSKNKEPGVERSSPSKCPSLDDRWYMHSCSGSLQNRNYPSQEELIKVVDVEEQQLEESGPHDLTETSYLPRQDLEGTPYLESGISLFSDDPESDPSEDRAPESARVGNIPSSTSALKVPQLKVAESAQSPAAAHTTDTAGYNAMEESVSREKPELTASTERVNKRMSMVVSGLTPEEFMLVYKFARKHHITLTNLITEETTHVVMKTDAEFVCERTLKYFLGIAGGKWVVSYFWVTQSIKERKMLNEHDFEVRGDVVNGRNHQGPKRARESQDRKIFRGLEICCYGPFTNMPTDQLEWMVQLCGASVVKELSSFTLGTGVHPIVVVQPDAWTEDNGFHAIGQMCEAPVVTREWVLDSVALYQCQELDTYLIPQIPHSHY
BRCA1-BARD1, sequence (Q99728 whole entry, chain 2 of 2): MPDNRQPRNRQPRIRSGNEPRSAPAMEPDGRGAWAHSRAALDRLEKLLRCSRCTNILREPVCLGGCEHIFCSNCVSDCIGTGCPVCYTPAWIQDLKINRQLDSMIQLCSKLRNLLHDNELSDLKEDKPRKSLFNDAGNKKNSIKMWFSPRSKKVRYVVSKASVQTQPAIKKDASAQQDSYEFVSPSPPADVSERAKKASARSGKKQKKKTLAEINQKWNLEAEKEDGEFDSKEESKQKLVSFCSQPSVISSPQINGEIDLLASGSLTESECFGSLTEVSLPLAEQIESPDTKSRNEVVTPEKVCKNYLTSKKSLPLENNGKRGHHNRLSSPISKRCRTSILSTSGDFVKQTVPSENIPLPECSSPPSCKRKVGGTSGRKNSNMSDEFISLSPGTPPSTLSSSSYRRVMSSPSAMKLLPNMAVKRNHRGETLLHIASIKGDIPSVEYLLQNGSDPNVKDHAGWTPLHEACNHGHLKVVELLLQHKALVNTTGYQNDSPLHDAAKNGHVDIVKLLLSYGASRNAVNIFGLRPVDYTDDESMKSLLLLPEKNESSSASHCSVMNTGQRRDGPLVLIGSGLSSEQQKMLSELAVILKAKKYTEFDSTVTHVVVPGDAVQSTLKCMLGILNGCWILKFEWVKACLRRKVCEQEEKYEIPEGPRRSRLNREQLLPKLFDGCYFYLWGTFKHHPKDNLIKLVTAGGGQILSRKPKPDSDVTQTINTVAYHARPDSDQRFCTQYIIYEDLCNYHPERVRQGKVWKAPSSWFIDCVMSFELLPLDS

B1: CTC1-STN1-TEN1 (CST) complex (complex)
chain 1: AAGRAQVPSSEQAWLEDAQVFIQKTLCPAVKEPNVQLTPLVIDCVKTVWLSQGRNQGSTLPLSYSFVSVQDLKTHQRLPCCSHLSWSSSAYQAWAQEAGPNGNPLPREQLLLLGTLTDLSADLEQECRNGSLYVRDNTGVLSCELIDLDLSWLGHLFLFPRWSYLPPARWNSSGEGHLELWDAPVPVFPLTISPGPVTPIPVLYPESASCLLRLRNKLRGVQRNLAGSLVRLSALVKSKQKAYFILSLGRSHPAVTHVSIIVQVPAQLVWHRALRPGTAYVLTELRVSKIRGQRQHVWMTSQSSRLLLLKPECVQELELELEGPLLEADPKPLPMPSNSEDKKDPESLVRYSRLLSYSGAVTGVLNEPAGLYELDGQLGLCLAYQQFRGLRRVMRPGVCLQLQDVHLLQSVGGGTRRPVLAPCLRGAVLLQSFSRQKPGAHSSRQAYGASLYEQLVWERQLGLPLYLWATKALEELACKLCPHVLRHHQFLQHSSPGSPSLGLQLLAPTLDLLAPPGSPVRNAHNEILEEPHHCPLQKYTRLQTPSSFPTLATLKEEGQRKAWASFDPKALLPLPEASYLPSCQLNRRLAWSWLCLLPSAFCPAQVLLGVLVASSHKGCLQLRDQSGSLPCLLLAKHSQPLSDPRLIGCLVRAERFQLIVERDVRSSFPSWKELSMPGFIQKQQARVYVQFFLADALILPVPRPCLHSATPSTPQTDPTGPEGPHLGQSRLFLLCHKEALMKRNFCVPPGASPEVPKPALSFYVLGSWLGGTQRKEGTGWGLPEPQGNDDNDQKVHLIFFGSSVRWFEFLHPGQVYRLIAPGPATPMLFEKDGSSCISRRPLELAGCASCLTVQDNWTLELESSQDIQDVLDANKSLPESSLTDLLSDNFTDSLVSFSAEILSRTLCEPLVASLWMKLGNTGAMRRCVKLTVALETAECEFPPHLDVYIEDPHLPPSLGLLPGARVHFSQLEKRVSRSHNVYCCFRSSTYVQVLSFPPETTISIPLPHIYLAELLQGGQSPFQATASCHIVSVFSLQLFWVCAYCTSICRQGKCTRLGSTCPTQTAISQAIIRLLVEDGTAEAVVTCRNHHVAAALGLCPREWASLLDFVQVPGRVVLQFAGPGAQLESSARVDEPMTMFLWTLCTSPSVLRPIVLSFELERKPSKIVPLEPPRLQRFQCGELPFLTHVNPRLRLSCLSIRESEYSSSLGILASSC
chain 2: QPGSSRCEEETPSLLWGLDPVFLAFAKLYIRDILDMKESRQVPGVFLYNGHPIKQVDVLGTVIGVRERDAFYSYGVDDSTGVINCICWKKLNTESVSAAPSAARELSLTSQLKKLQETIEQKTKIEIGDTIRVRGSIRTYREEREIHATTYYKVDDPVWNIQIARMLELPTIYRKVYDQPFHSSALEKEEALSNPGALDLPSLTSLLSEKAKEFLMENRVQSFYQQELEMVESLLSLANQPVIHSASSDQVNFKKDTTSKAIHSIFKNAIQLLQEKGLVFQKDDGFDNLYYVTREDKDLHRKIHRIIQQDCQKPNHMEKGCHFLHILACARLSIRPGLSEAVLQQVLELLEDQSDIVSTMEHYYTAF
chain 3: LPKPGTYYLPWEVSAGQVPDGSTLRTFGRLCLYDMIQSRVTLMAQHGSDQHQVLVCTKLVEPFHAQVGSLYIVLGELQHQQDRGSVVKARVLTCVEGMNLPLLEQAIREQRLYKQERGGSQ
With B1, the binding result with BRCA1-BARD1 is on record as “binds”.

B2: green fluorescent protein (GFP)-DNA2 (enzyme, UniProt P51530 1-1060, looked up)
chain: MEQLNELELLMEKSFWEEAELPAELFQKKVVASFPRTVLSTGMDNRYLVLAVNTVQNKEGNCEKRLVITASQSLENKELCILRNDWCSVPVEPGDIIHLEGDCTSDTWIIDKDFGYLILYPDMLISGTSIASSIRCMRRAVLSETFRSSDPATRQMLIGTVLHEVFQKAINNSFAPEKLQELAFQTIQEIRHLKEMYRLNLSQDEIKQEVEDYLPSFCKWAGDFMHKNTSTDFPQMQLSLPSDNSKDNSTCNIEVVKPMDIEESIWSPRFGLKGKIDVTVGVKIHRGYKTKYKIMPLELKTGKESNSIEHRSQVVLYTLLSQERRADPEAGLLLYLKTGQMYPVPANHLDKRELLKLRNQMAFSLFHRISKSATRQKTQLASLPQIIEEEKTCKYCSQIGNCALYSRAVEQQMDCSSVPIVMLPKIEEETQHLKQTHLEYFSLWCLMLTLESQSKDNKKNHQNIWLMPASEMEKSGSCIGNLIRMEHVKIVCDGQYLHNFQCKHGAIPVTNLMAGDRVIVSGEERSLFALSRGYVKEINMTTVTCLLDRNLSVLPESTLFRLDQEEKNCDIDTPLGNLSKLMENTFVSKKLRDLIIDFREPQFISYLSSVLPHDAKDTVACILKGLNKPQRQAMKKVLLSKDYTLIVGMPGTGKTTTICTLVRILYACGFSVLLTSYTHSAVDNILLKLAKFKIGFLRLGQIQKVHPAIQQFTEQEICRSKSIKSLALLEELYNSQLIVATTCMGINHPIFSRKIFDFCIVDEASQISQPICLGPLFFSRRFVLVGDHQQLPPLVLNREARALGMSESLFKRLEQNKSAVVQLTVQYRMNSKIMSLSNKLTYEGKLECGSDKVANAVINLRHFKDVKLELEFYADYSDNPWLMGVFEPNNPVCFLNTDKVPAPEQVEKGGVSNVTEAKLIVFLTSIFVKAGCSPSDIGIIAPYRQQLKIINDLLARSIGMVEVNTVDKYQGRDKSIVLVSFVRSNKDGTVGELLKDWRRLNVAITRAKHKLILLGCVPSLNCYPPLEKLLNHLNSEKLIIDLPSREHESLCHILGDFQRE
As for B2, in the test with mCherry-BLM, the binding result is listed as “binds”.
